Assay results taken from the DeepSol protein solubility set.

Assay: soluble on expression in E. coli; label from the status in PepcDB or PDB records

| Sequence | soluble on expression in E. coli |
| --- | --- |
| MSLDNKRRFALVGTGNRGTTMWGRDLLAGWRGLVDLVAIADTNALRAERARTMIATNAPVYGNVDAMLAETRPDLVIVCTPDDTHDDIVVRALESGADVITEKPMSTTVEKIRRILDAEKRTGRRVDVSFNYRFAPTAARIKELLNAGEIGRVTSVDFHWYLDTRHGADYFRRWHAYAEHSGSLFVHKATHHFDLLNWYLDSDPEAVSAFADLQMYGRRGPFRGPRCKLCPHKSECDFYLDLEADPFLDSLYEEPSEIDSYFRDGCVFREDIDIPDTMVANIRYRNDVHVSYSLNTFQPIEGHHIAFNGTKGRIELRQYEDQPWETPPEDEILLVRNFPKGKPAMERITVPHFPGGHYGGDDRLRNTLFEPDAKDPLGQRAGARAGAMSVLCGIAALQSSRTGKIVRLADLMPELFTDGAQPMRERLKETCSREGHHHHHH | soluble |
| MGSDKIHHHHHHMDAFEKVRTRLETQPQEEYEVVNAEIKHGGFVYYQEGCCLVRSKDEEADSDNYEVLFNLEELKLDQPFIDCIRVAPDEKYVAAKIRTEDSETSTLVVVKLSDQPVMEASFPNVSSFEWVKDEEDEDVLFYTFQRNLRCHDVYRATFGDNKRNERFYTEKDPSYFVFLYLTKDSRFLTLNIMNKTTSEVWLIDGLSPWDPPVLIQKRIHGMLYYVEHRDDELYILTNVGEPTEFKLMRTAADAPAIMNWDLFFTMKRNTKVVDLDMFKDHCVLFLKHSNLLYVNVIGLADDSVRSLKLPPWACGFIMDTNSDPKNCPFQLCSPIRPPKYYTYKFAEGKLFEETGHEDPITKTSRVLRIEAKSKDGKLVPMTVFHKTDSEDLQRKPLLVHVYGAYGMDLKMNFRPEKRVLVDDGWILAYCHVRGGGELGLQWHADGRLTKKLNGLADLVACIKTLHSQGFSQPSLTTLSAFSAGGVLVGALCNSKPELLRAVTLEAPFLDVLNTMLDTTLPLTLEELEEWGNPSSDEKHKNYIKRYCPCQNIKPQHYPSVHITAYENDERVPLKGIVNYTEKLKEAVAEHTKGAGEGYQPPNIILDIQPGGNHVIEDSHKKITTQMKFLYEELGLDSTDAFEALKKYLKF | soluble |
| MGSDKIHHHHHHTCSACIQYHESCAWCGAPMFDEKKPYARCDSRAKLMEHGCPNSYIEDPATKLDITEDSKLSDQGQVESEEEAVQIKPQEMYVEIRPKSRVRFNVTYRQAVDYPVDLYYLMDLSYSMKDDKQKLSELGDLLAERMRTVTKNFRLGFGSFIDKKLMPFIDPRIEKQLSPCPTPCAEPYGFKHQMSLTTNTAKFKAEVDKAEISGNLDAPEGGFDAVVQALACNKTIGWRERARKMIVFSTDAGFHFAGDGRLAGVVEPNDGTCHLDREGYYTETLNQDYPSIALLHQMIKDRKANVIFAVTKNNQDLYTQLSNALPDVSSSVGVLANDSRNIVDLIEKEYLKISEKIIMVDNANASEGLKLTYRSMCLDGTTLKDTNVCEGIRVGDEVQFEVTLENTHCIDKRDFVLRIGPSGLDETLIVNVKVLCDC | not soluble |
| MGSDKIHHHHHHMMKLSTMKKVVATVDKKWRSPLAEFILERWGFDRHSVFYWRASANFIFMFQHHGKKYYLRFNDSCERNLTLIKEELKLVQYLGSQALAIAQPVLSKNNNLVEVVITPIGTFYAVVFEALDGEHLSFEEMNEEQLFLWGEMLGTIHENLKNVPNDLAIKRPSWKDDLEKVKEWIPSNEIAAMKELEMISEWADQLPITKENFGIIHYDFELDNVRFNEITIGALDFDDCAYYWYVADIVYALRDAGKFRVTTPAIKTFIKGYKSSTFLEEELLEEANGFERLHHLVSFARLLRSVDKDYSKEEPGYLMDLRKNLVSLINNYRLSFEQNHK | not soluble |
| MGSYSSDDVEVIREAGRAQGLATILAIGTATPPNCVAQADYADYYFRVTKSEHMVDLKEKFKRICEKTAIKKRYLALTEDYLQENPTMCEFMAPSLNARQDLVVTGVPMLGKEAAVKAIDEWGLPKSKITHLIFCTTAGVDMPGADYQLVKLLGLSPSVKRYMLYQQGCAAGGTVLRLAKDLAENNKGSRVLIVCSEITAILFHGPNENHLDSLVAQALFGDGAAALIVGSGPHLAVERPIFEIVSTDQTILPDTEKAMKLHLREGGLTFQLHRDVPLMVAKNIENAAEKALSPLGITDWNSVFWMVHPGGRAILDQVERKLNLKEDKLRASRHVLSEYGNLISACVLFIIDEVRKRSMAEGKSTTGEGLDCGVLFGFGPGMTVETVVLRSVRVTAAVANGN | soluble |
| MAHHHHHHMMAIRNMLRKIIIKHGKVANAVWVPKRFINMNPTGNEEKVTQERNKRDYILSLDEALYLSKEMGIKTTTEIQKIIMRSPPFSPDMSPFLIDNFLSSANKDRHSDEIDQIDLKLKELQERDSNPEESEQGEDEGAVENSKINISHDREENIINKILIDKFNKKRGKTFIHNDMEWLEESEGIGTNKRSCAYVYIKRGSGIVKVNDEEDLYIRWPYFYNRMDVLEPFYVTNTSCVFDVFIKLKGGGISGQSKAARLAIGRALLNACPLIYDDLQQHHILYEDMRQKFPKMPGRKKSRAMKQWSKR | not soluble |
| SMSPEPDCQKQFQAAVSVIQNLPKNGSYRPSYEEMLRFYSYYKQATMGPCLVPRPGFWDPIGRYKWDAWNSLGKMSREEAMSAYITEMKLVAQKVIDTVPLGEVAE | soluble |
| GPGSMVHSYGYKSGTRHLFAKKFRKHGAPSVSTILTNIKVGDYVDVVADSAVREGMPHKYYHGRTGIVWNVTPRGVGVIINKPVRTRTLRKRICVRFEHVRKSRCQEAFKAKEHQFQAYLAAKKAGKALPPLQKSSRLGGIVRPKTVEVLARRVADYEAMVPY | not soluble |
| MKFTETSLKLNPLTEITFFLTFGAKTMSNQWNSGIHDRKLKEEICEIGRRVYNKGFAAANDGNISIRVGENEVLCSPTMICKGFMKPDDICAVDLDGNQIAGTRKRTSEILLHLAIMKERPDVKAVVHCHPPHATAFAVAREPIPQCVLPEVEVFMGEVPMAPYETPGGQKFADTVVPFLKGGTNTIILTGHGTVTFGKSLEDAYWKTEILDAYCNILLLSKQLGRVTYFTENETRELLDLKKKLGFDDPRFHVEDCDLCGNSAFRDGYKEGIPQQKSFEPAPSYPGYLSKPSTQATPATNNGDSDQLIKAITDQVMSALGK | not soluble |
| MRDRVRWRVLSLPPLAQWREVMAALEVGPEAALAYWHRGFRRKEDLDPPLALLPLKGLREAAALLEEALRQGKRIRVHGDYDADGLTGTAILVRGLAALGADVHPFIPHRLEEGYGVLMERVPEHLEASDLFLTVDCGITNHAELRELLENGVEVIVTDHHTPGKTPPPGLVVHPALTPDLKEKPTGAGVAFLLLWALHERLGLPPPLEYADLAAVGTIADVAPLWGWNRALVKEGLARIPASSWVGLRLLAEAVGYTGKAVEVAFRIAPRINAASRLGEAEKALRLLLTDDAAEAQALVGELHRLNARRQTLEEAMLRKLLPQADPEAKAIVLLDPEGHPGVMGIVASRILEATLRPVFLVAQGKGTVRSLAPISAVEALRSAEDLLLRYGGHKEAAGFAMDEALFPAFKARVEAYAARFPDPVREVALLDLLPEPGLLPQVFRELALLEPYGEGNPEPLFLLFGAPEEARRLGEGRHLAFRLKGVRVLAWKQGDLALPPEVEVAGLLSENAWNGHLAYEVQAVDLRKPEALEGGIAPFAYPLPLLEALARARLGEGVYVPEDNPEGLDYAWKAGFRLLPPEEAGLWLGLPPRPVLGRRVEVALGREARARLSAPPVLHTPEARLKALVHRRLLFAYERRHPGLFSEALLAYWEVNRVQEPAGSP | soluble |
| MDESIDDVQETRTIAIPLKDSHEDEVIEINCSELPDGEEVLQILEAEEAKLSYWIEVALEYYRQDRVDLFMMILESAGSRAGLEYEGVKQDQMRALDILAAYWMTQGYREKAKDKKSDFFSKATVLFNTADKIAMYEWSHLTVRAWFYLFERDKSTNKYELADQQFNYVVKTNPKNVLPLIGKAVIAFNKKDYKTAIYYFRKAIRQCRHTIADLRVGIGHCFAKMGMMDKAKTAFERAMEIEPYNVSAMCGLGIILLNTYDHDSLKHAVSLFGRSYNLQTDHPVALIHLANHFFFKKEIERAWTLAWHAATYNDCDSIKAEAFYQMGRCRHAQGQFDGAYKYYYQARQANNGEHTLAHYGLGQMYIHRNEIEEAIKCFDTVHKRLPNNTDTMKILGSLYAHVQLNDPAQTAEARQKGRDVLGKYLAVENDDYEACIDLAQLLEATDPKRSLELYENAIDLLVTNESIQPQPEMLNNVGALYMSMKQYEKAEHHFKRAKERLEEQLNTDEGSLLLERRSAPEKSHLLTIRYNLALCLEHLCRTVEAEQMYKDIVKECPGYIDGYLRLGCITRDRHQVYESSLWLKQGVQFDQASPIVWTLIGNLHFAKNEWMPAQKKFEFILSKIFNNKIPDPYSLVALGNVWFEQLLNPSRKKEDEKKYIDRALQMYQKALKLQPKNMYAANGIGCVLAYKRNWNDARDVFSQVRESTSEFYDVWLNIAHVCMEREQWMAAVQMYSSAMKKFRKENDSTLQHYLAKAYYRANMLNEAKEALECAMLDQLDNTQLKFNYAIVLKKSAKEVLRGHKMTSEQVTAAIDDLKFADKIFQYISKNDDRQSSHTGMRISRTICAEEAKNCKDLLTQAKHKLAAAQTQDEEERRLMEKQEKEKIALQNKMIEEARAKEEAEKQKLEDMKNLRLSFIEMTKDVLRLPEIVEEKRRGGGGRKRRNDDGDEFVNDSSDAGNYDGEEGGEDGERRERRKKDKAAKKASRKKRERRDSGGPDSNRRDEKKRKRKEERDRKLQEKLSAKQSAKIKSRAFLSSSESSDDDKPKPAADSSDDEVDPRPPVDEFDSPTRTDSDSDRETTTKKKKKKAVVDSDEGSVSGSGSGSDNDDKPIIGGSDDDDDDKPAGGNSRDSDGSDAPKKKVIESDSD | not soluble |
| MAFADIVRSVENRTNAATLNWSIKNGWKPEVTGFSGYGSGRRVRVLARVLMSNPENLLVDAPSQSITQQAQRGWRQFFTIQVPNLPVTVTVGGKTVTSSTNDNGYVDLLVEDHNLDPGWHTIQIQAEGSTPAEARVLIVENTARIGLISDIDDTIMVTWLPRALLAAWNSWVLHTKTRKPVPGMNRFYEELLKDHPDAPVFYLSTGAWNTFETLQEFINKHALPDGPMLLTDWGPTPTGLFRSGQEHKKVQLRNLFIEYPDMKWILVGDDGQHDPLIYGEAVEEHPNRIAGVAIRELSPGEHVLSHGTTASLSTITTNGGQGVPVVHGRDGYELLQRYETKPFALEHHHHHH | soluble |
| MKTQVVINAKIYTGQEVVENGFIRYAETIKEIGLMAQYVSQENETVLDAAGKIVIPGMIDVHIHGGYDIDAMDANSDGLVTLGKEMLKEGVTTYFPTTMTQAPEAIEAALHAAKEAKEKGAHFEYIHLEGPYVSKKRAGAQPLEHIVPANIEQFKQWQEASGNLIKLVTYAPEEEGALEFEQYLAETGVVGTMGHTDAIDAQLKNRNITHATHLYNQMRGLHHREPGVVGHVLLNPDVMVEVITDGIHIHPDMVKLAYKLKGPKKVSVITDAMRAKGLEDGLYELGGQPVHVKDGSARLEDGTLAGSILKMDQAFRNVIEFTGCSIEDAVLMTSVNQAEEFGLNNKGALAVGKDADFVVMNEDLHVYDTVRLGIHMKEGK | not soluble |
| MGSDKIHHHHHHMTAAVKTTPGFASRLVNGVLAIKPLANLAKHQARQMMIKRAERIGVPWTKEVKTLQARDWKADLTQIENSQLSYPDYYVTSFHAYETGNLSWQAAFEVEPAAYAVHSKVVEGAEEAQGDPMLRQSYHNILKSQIPNEPQDILDVGCSVGLSTFALQAVYSQAKIIGLDLSPYFLAVANYRAQQRQAKINWLHAQAESTGLPDASFDLVSIFLMCHELPQSATRQILAEMRRVLRPGGYLAIMDMNPKSEVYQKMPAYILTLLKSTEPYLDEYFALDIEQAFVEAGFQTPTITNNTHRHRTVIAQVSG | not soluble |
| MGHHHHHHSHMADVEDGEETCALASHSGSSGSKSGGDKMFSLKKWNAVAMWSWDVECDTCAICRVQVMDACLRCQAENKQEDCVVVWGECNHSFHNCCMSLWVKQNNRCPLCQQDWVVQRIGK | not soluble |
